Consider eleven molecules from patent US20220298231A1 (AC IMMUNE, published 2022).

Where two headings read alike, the source gives them in different places. Where no end group is shown, it is not given here. The star is where a group is joined. Biotin = O=C1N[C@H]2[C@H](CS[C@H]2CCCCC(=O)*)N1; Ahx = NCCCCCC(=O)O

For one assay, the target named is T1, 37-51aa.
T1 construct: also called alpha-synuclein peptide 37-51
T1 peptide: {Biotin-Ahx}-VLYVGSKTKEGVVHG
Kind of assay: 15-mer peptide ELISA. In general terms: An ELISA detects its analyte on a solid surface through an enzyme-linked reagent.

For assay [1], the target named is T2, 82-96aa.
T2 construct: also called alpha-synuclein peptide 82-96
T2 peptide: {Biotin-Ahx}-VEGAGSIAAATGFVK
As to the kind of experiment: 15-mer peptide ELISA.
Protocol: (§1) Epitope mapping for the antibodies derived from stable hybridoma clones was determined using an indirect ELISA on a library of 15-mer peptides covering the entire sequence of human alpha-synuclein from 1 to 140aa. […] Results are expressed as optical density (O.D.). Each bar represents data for an individual antibody.
(§2) Serum-free supernatants were harvested from stable hybridomas. The supernatants containing antibodies of interest were then screened by an indirect ELISA assay to determine epitopes. Epitopes were first determined using a library of 15-mer peptides covering the entire sequence of human alpha-synuclein protein, spanning amino acids (aa) 1-140 with 9aa offset and 6aa overlap. […] Briefly, streptavidin-coated ELISA plates were blocked overnight at 4° C. […] Plates were washed with PBS/0.05% Tween® 20 and then incubated with the hybridoma supernatants at 1/100 dilution for 1 hour at 25° C. […] After final wash, plates were incubated 2 hours at 25° C. with alkaline phosphatase substrate (p-nitrophenyl phosphate disodium hexahydrate; pNPP, S0942, Sigma) and read the absorbance optical density (O.D.) signal at 405 nm using an ELISA plate reader (Tecan, Switzerland).

The next assay concerns the target T3, 1-15aa.
T3 construct: also called alpha-synuclein peptide 1-15
T3 peptide: {Biotin-Ahx}-MDVFMKGLSKAKEGV
Kind of assay: indirect ELISA on biotinylated 15-mer peptide (streptavidin plate), supernatant 1/100.

Assay [2] concerns the target T4, 91-105aa.
T4 construct: also called alpha-synuclein peptide 91-105
T4 peptide: {Biotin-Ahx}-ATGFVKKDQLGKNEE
Kind of assay: 15-mer peptide ELISA.
Protocol: as §1, §2

In a further assay the target is alpha-synuclein fibrils (Homo sapiens (Human), UniProt P37840 1-140). Kind of assay: cell-based or functional assay.
The target in assay [3] is T4, 91-105aa. Kind of assay: 15-mer peptide ELISA.
Protocol: as §1, §2
Assay [4] concerns the target T5, 100-114aa.
T5 peptide: {Biotin-Ahx}-LGKNEEGAPQEGILE
Kind of assay: 15-mer peptide ELISA.
Protocol: as §1, §2

For assay [5], the target named is T6, 109-123aa.
T6 peptide: {Biotin-Ahx}-QEGILEDMPVDPDNE
As to the kind of experiment: 15-mer peptide ELISA.
Protocol: as §1, §2

The target in assay [6] is T2, 82-96aa. As to the kind of experiment: 15-mer peptide ELISA.
Protocol: as §1, §2
Assay [7] concerns the target T6, 109-123aa. As to the kind of experiment: indirect ELISA on biotinylated 15-mer peptide (streptavidin plate), supernatant 1/100.
Protocol: as §1, §2
The target of assay [8] is T5, 100-114aa. The description is as above.
Protocol: as §1, §2

Protocol for 1-15aa: as §1, §2
Protocol for 37-51aa: as §1, §2

B1: ACI-7088-4303A1-Ab1 (antibody, V domains shown)
VH: EVQLQQSGAELVRPGASVKLSCTASGFNIKDDYMHWVKQRPEQGLEWIGWIDPENGDSEYASKFQGKATMTADTSSNTAYLQLSSLTSEDTAVYYCKTWGTAQALFPYWGQGTLVTVSA
VL: DIVMTQSQKFMSTSVGDRVSITCKASQNVGTSVGWYQQKAGQSPKLLIHSASNRYTGVPDRFTGSGSGTDFTLTINNMQSEDLADYFCQQYRSYPLTFGAGTKLELK
notes: mouse hybridoma mAb; also called 4303A1E7
In the case of B1, the binding result is recorded as “no binding (tested: supernatant 1/100)” with 37-51aa, “no binding (tested: supernatant 1/100)” with 82-96aa [1] and “binds” in the assay with 1-15aa.

B2: ACI-7088-4317A4-Ab1 (antibody, V domains shown)
VH: EVQLQQSGAELVRPGASVKLSCTASGFNIKDDYMHWVKQRPEQGLEWIGWIDPENGDTEYASKFQGKATMTADTSSNTAYLQLSSLTSEDTAVYYCKTWGTTQALFPYWGQGTLVTVSA
VL: DIVMTQSQKFMYTSVGDRVSITCKASQNVGNAVGWYQQKAGQSPKLLIHSASNRYTGVPDRFTGTGSGTDFTLTINNMQSEDLADYFCQQYRSYPLTFGAGTKLELK
notes: mouse hybridoma mAb; also called 4317A4D2
As for B2, the binding result in the assay with 37-51aa is given as “no binding (tested: supernatant 1/100)”; with 82-96aa [1], “no binding (tested: supernatant 1/100)”; with 91-105aa [2], “no binding (tested: supernatant 1/100)”; with 1-15aa, “binds”.

B3: ACI-7067-1113D10-Ab1 (antibody, V domains shown)
VH: EVQLVESGGGLVQPKGSLKLSCAASGFTFNTYALHWVRQAPGKGLEWVARIRSKSSNYATYYADSVKDRFTISRDDSQSMLYLQMNNLKTEDTGMYYCVRGGVSPFDYWGQGTTLTVSS
VL: QIVLTQSPAIMSASPGEKVTMTCSASSSVSYMHWYQQKSGTSPKRWIYDTSKLASGVPARFSGSGSGTSYSLTISSMEAEDSATYYCQQWSNNPPTFGGGTKLEIK
As to B3, in the assay with alpha-synuclein fibrils, the “IC50, de novo alpha-synuclein aggregates formed in seeded mouse primary cortical neurons” value (“IC50 … in seeded mouse primary cortical neurons” below) came out at 702 nM and the “IC50, de novo alpha-synuclein aggregates formed in the seeded in vitro cellular model” value (“IC50 … in vitro cellular model” for short) stood at 39.6 nM.

B4: ACI-8033-1F8-Ab1 (antibody, V domains shown)
VH: DVQLQESGPGLVKPSQSLSLTCSVTGYSITSGFYWNWIRQFPGNKLEWMGYISYDGSNNYNPSLKNRISIIRDTSKNQFFLKLKSVTSEDTATYYCVRGDVDWGQGTTLTVSS
VL: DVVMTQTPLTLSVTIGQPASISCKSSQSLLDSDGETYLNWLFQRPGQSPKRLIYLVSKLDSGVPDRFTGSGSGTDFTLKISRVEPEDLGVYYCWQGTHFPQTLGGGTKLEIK
notes: mouse hybridoma mAb; also called 917.1F8D8E4
As to B4, the binding result with 91-105aa [3], in the assay with 100-114aa [4] and with 109-123aa [5] was “no binding (tested: supernatant 1/100)” throughout.

B5: ACI-7067-1108B11-Ab2 (antibody, V domains shown)
VH: EVQLVESGGGLVQPKGSLKLSCAASGFTFNTYAMHWVRQAPGKGLEWVARIRSKGSNYATNYADSVKDRFTISRDDSQSMLYLQMNNLKTEDTAMYYCVRGHGSSYFSYWGQGTLVTVSA
VL: QIVLTQSPAIMSASPGERITMTCSANSSVTYMHWYQQKSGTSPKRWIYDTSNLASGVPARFSGSGSGTSYSLTISSMEAEDAATYYCQQWKSHPPTFGAGTKLELK
With B5, in the assay with alpha-synuclein fibrils, the “IC50 … in seeded mouse primary cortical neurons” value came out at 143 nM and the “IC50 … in vitro cellular model” value was determined as 4.5 nM.

B6: ACI-8033-1A12-Ab1 (antibody, V domains shown)
VH: QVHLKQSGADLVRPGASVKLSCKASGYSFTDFYINWVKQTPGQGLEWIARIYPGNNNTFYNEKFKGKATLSAEKSSTTAYMQLSSLTSEDSAVYFCVVGYYGAWGQGTTLTVSS
VL: DVVMTQTPLSLPVSLGDQASISCRSSQSLVHSNGNTHLHWYLQKPGQSPKLLIYKVSNRFSGVPDRFSGSGSGTDFTLKISRVEAEDLGFYFCSQSTHVPWTFGGGTKLEIK
notes: mouse hybridoma mAb; also called 917.1A12C1B4
With B6, the binding result with 82-96aa [6] is “no binding (tested: supernatant 1/100)”; with 91-105aa [3], “no binding (tested: supernatant 1/100)”; in the assay with 100-114aa [4], “no binding (tested: supernatant 1/100)”; in the assay with 109-123aa [7], “binds”.

B7: ACI-8033-1G10-Ab1 (antibody, V domains shown)
VH: DVQLQESGPGLVKPSQTVFLTCTVTGISITTGNYRWSWIRQFPGNKLEWIGYIYYSGTITYNPSLTSRTTITRDTPKNQFFLEMNSLTAEDTATYYCARIYYGNAMDYWGQGTSVTVSS
VL: DVVMTQTPLSLPVSLGDQASISCRSSQSLVHSNGNTYLHWYLQKPGQSPKLLIYKVSNRFSGVPDRFSGSGSGTDFTLKISRVEAEDLGVYFCSQSTHVPHTFGGGTKLEIK
notes: mouse hybridoma mAb; also called 917.1G10A10F6
With B7, the binding result with 82-96aa [6] is “no binding (tested: supernatant 1/100)”; with 91-105aa [3], “no binding (tested: supernatant 1/100)”; with 109-123aa [7] it was “binds”.

B8: ACI-8033-19A2-Ab1 (antibody, V domains shown)
VH: EVQLVESGGGLVQPKGSLKLSCAASGFSFNTYAMNWVRQAPGKGLEWVARIRSKSNNYATYYVDSVKDRFTISRDDSESMLYLQMNNLKTEDTALYYCVSESAYWGQGTLVTVSA
VL: DVVMTQTPLSLPVSLGDQASISCRSSQSLVHSNGNTYLYWYLQKPGQSPKLLIYKVSNRLSGVPDRFSGSGSGTDFTLKISRVEAEDLGVYFCSQSTHVPFTFGSGTKLEIK
notes: mouse hybridoma mAb; also called 917.19A2E9E5
Regarding B8, the binding result is “no binding (tested: supernatant 1/100)” with 82-96aa [6], “no binding (tested: supernatant 1/100)” with 91-105aa [3], “no binding (tested: supernatant 1/100)” with 100-114aa [4] and “binds” with 109-123aa [7].

B9: ACI-7067-1101C8-Ab2 (antibody, V domains shown)
VH: EVQLVESGGGLVQPKGSLKLSCAASGFSFNIYAMNWVRQAPGKGLEWVARIRSKSNNYATYYADSVKDRFTISRADSESMLYLQMNNLKTEDTAMYYCVRVGLRFYAMDYWGQGTSVTVSS
VL: DVLMTQTPLSLPVSLGDQASISCRSSQSIVHSNGNTYLEWYLQKPGQSPKLLIYKVSNRFSGVPDRFSGSGSGTDFTLKISRVEAEDLGVYYCFQGSQGPLTFGAGTKLELK
For the molecule B9, in the assay with alpha-synuclein fibrils, the “IC50 … in seeded mouse primary cortical neurons” value worked out at 114 nM and the “IC50 … in vitro cellular model” value was determined as 3.3 nM.

B10: ACI-8033-18C11-Ab1 (antibody, V domains shown)
VH: QVQLQQPGAELVKPGASVKMSCKAAGYTFSSYWITWVRQRPGQGLDWIGDIYPGGGVTNYNEKFKTKATLTVDTSSSTAYMQLSSLTSEDSAVYYCATAQTTFAYWGQGTLVTVSA
VL: DVLMTQTPLSLPVSLGDQASISCRSSQNIVHNNGNTYLEWYLQKPGQSPKLLIYKVSNRFSGVPDRFSGSGSGTDFTLKISRVEAEDLGVYYCFQGSHVPRTFGGGTKLEIK
notes: mouse hybridoma mAb; also called 917.18C11A11F10
For the molecule B10, the binding result with 82-96aa [6] was “no binding (tested: supernatant 1/100)”; with 91-105aa [3], “no binding (tested: supernatant 1/100)”; in the assay with 109-123aa [5] it was “no binding (tested: supernatant 1/100)”; with 100-114aa [8], “binds”.

B11: ACI-8033-25A3-Ab1 (antibody, V domains shown)
VH: EVQLVESGGGLVQPKGSLKLSCAASGFSFNTYAMNWVRQAPGKGLEWVARIRSKSNNFATYYADSVKDRFTISRDESESMLYLQMNNLKTEDTAMYYCVRSFDYWGQGTTLTVSS
VL: DIKMTQSPSSMYASLGERVTITCKASQDINSYLSWFQQKPGKSPKTLIYRAKRLVDGVPSRFSGSGSGQDYSLTISSLEYEDMGIYYCLQYDEFPFTFGSGTKLEIK
notes: mouse hybridoma mAb; also called 917.25A3E9F6
In the case of B11, the binding result in the assay with 82-96aa [6], in the assay with 91-105aa [3], with 100-114aa [4] and in the assay with 109-123aa [5] was “no binding (tested: supernatant 1/100)” each time.
